Measured values as given in patent US20210054095A1 (PHILOGEN S P A, published 2021).

How the values were obtained:
[1] = molecular target: carbonic anhydrase IX (CAIX) as expressed on SKRC52 human renal cell carcinoma cells, SKRC52 tumour sections … (human, UniProt Q16790 38-459); experiment: immunofluorescence on frozen human stomach sections, FITC-labelled hIgG1 at 2 ug/ml
Experimental: Frozen sections of healthy human stomach tissue were stained as follows. Briefly, FITC-labeled antibody XE114 in human IgG1 (hIgG1) format was added at a final concentration of 2 μg/ml to acetone-fixed sections.
Counterstaining for cell nuclei was performed with DAPI. Tissue sections were mounted with fluorescent mounting medium and analysed using an Axioskop2 microscope with a 10× objective.

[2] = molecular target: CAIX coated on a CM5 chip (Example 2) (human, UniProt Q16790 38-414); experiment: SPR (BIAcore X100), CAIX coated CM5 chip, scFv injected as serial dilutions
Experimental: Affinity measurements were performed by surface plasmon resonance using BIAcore X100 instrument using a CAIX coated CM5 chip. The XE114 antibody without glycosylation motif in scFv format was injected as serial-dilutions, in a concentration range from […] to 15.7 nM. Regeneration of the chip was performed by HCl 10 mM.
The BIAcore analysis confirmed that the XE114 antibody without glycosylation motif in scFv format was capable of binding to CAIX.

[3] = molecular target: recombinant His-tagged CAIX (amino acids 120-397 of the full-length protein; SEQ ID NO: 15) (human, UniProt Q16790 120-397); experiment: SPR (Biacore 3000), His-tagged CAIX on CM5 chip, monomeric scFv injected at 660 nM
Experimental: Affinity measurements were performed on a Biacore 3000 instrument. 2100 RU recombinant His-tagged CAIX (SEQ ID NO: 15) were immobilized onto a CM5 chip. Peaks representing the monomeric fractions of the scFv were collected by size-exclusion chromatography on a Superdex 75 HR 10/30 column. The monomeric fraction was injected at a flow rate of 10 μl min⁻¹ over the antigen-coated chip at […] different concentrations, 660 nM, 160 nM and 80 nM. All kinetic data were evaluated using the BIAevaluation 4.1 software.

B1: XE114 antibody (with the glycosylation motif) in human IgG1 (hIgG1) format (antibody, V domains shown)
VH: EVQLLESGGGLVQPGGSLRLSCAASGFTFSSYAMSWVRQAPGKGLEWVSAIDGSGGSTYYADSVKGRFTISRDNSKNTLYLQMNSLRAEDTAVYYCVKGPPVFDYWGQGTLVTVSS
VL: SSELTQDPAVSVALGQTVRITCQGDSLRSYYASWYQQKPGQAPVLVIYGKNNRPSGIPDRFSGSSSGNTASLTITGAQAEDEADYYCNSSKWSWDPVVFGGGTKLTVLG
modifications: FITC-labelled (site and chain not stated)
notes: also called FITC-labeled antibody XE114; XE114 in IgG format
B1: binds [1].

B2: XE114 antibody without glycosylation motif in scFv format (scFv)
scFv: EVQLLESGGGLVQPGGSLRLSCAASGFTFSSYAMSWVRQAPGKGLEWVSAIDGSGGSTYYADSVKGRFTISRDNSKNTLYLQMNSLRAEDTAVYYCVKGPPVFDYWGQGTLVTVSSGGGGSGGGGSGGGGSSELTQDPAVSVALGQTVRITCQGDSLRSYYASWYQQKPGQAPVLVIYGKNNRPSGIPDRFSGSSSGNTASLTITGAQAEDEADYYCQSSKWSWDPVVFGGGTKLTVLG
notes: Expressed in CHO-S cells; also called XE114 w/o glycosylation motif
Work on B2 yielded a Kd [2] of 2.71 nM and a koff [2] of 0.000305 s⁻¹.

B3: anti-CAIX XE114 scFv antibody (with the glycosylation motif) (scFv)
scFv: EVQLLESGGGLVQPGGSLRLSCAASGFTFSSYAMSWVRQAPGKGLEWVSAIDGSGGSTYYADSVKGRFTISRDNSKNTLYLQMNSLRAEDTAVYYCVKGPPVFDYWGQGTLVTVSSGGGGSGGGGSGGGGSSELTQDPAVSVALGQTVRITCQGDSLRSYYASWYQQKPGQAPVLVIYGKNNRPSGIPDRFSGSSSGNTASLTITGAQAEDEADYYCNSSKWSWDPVVFGGGTKLTVLG
notes: also called scFv XE114; XE114 single chain Fv
For B3, the Kd [3] was 15 nM.
